Source: patent publication US20220073608A1 (JIANGSU HUAIYU PHARMACEUTICAL, published 2022)

Columns and labels:
[1] = target: T1, human SEMA4D, full length, on CHO-K1 cells (CHO-K1 hSEMA4D) (human, UniProt Q92854 22-862); test: competitive FACS, CHO-K1 hSEMA4D cells; unlabelled Ab 6 ug/mL first, competitor Alexa 488-VX15 0.67 ug/mL
T1 construct: whole, on cells; also called human SEMA4D recombinant cells
T1 sequence (looked up): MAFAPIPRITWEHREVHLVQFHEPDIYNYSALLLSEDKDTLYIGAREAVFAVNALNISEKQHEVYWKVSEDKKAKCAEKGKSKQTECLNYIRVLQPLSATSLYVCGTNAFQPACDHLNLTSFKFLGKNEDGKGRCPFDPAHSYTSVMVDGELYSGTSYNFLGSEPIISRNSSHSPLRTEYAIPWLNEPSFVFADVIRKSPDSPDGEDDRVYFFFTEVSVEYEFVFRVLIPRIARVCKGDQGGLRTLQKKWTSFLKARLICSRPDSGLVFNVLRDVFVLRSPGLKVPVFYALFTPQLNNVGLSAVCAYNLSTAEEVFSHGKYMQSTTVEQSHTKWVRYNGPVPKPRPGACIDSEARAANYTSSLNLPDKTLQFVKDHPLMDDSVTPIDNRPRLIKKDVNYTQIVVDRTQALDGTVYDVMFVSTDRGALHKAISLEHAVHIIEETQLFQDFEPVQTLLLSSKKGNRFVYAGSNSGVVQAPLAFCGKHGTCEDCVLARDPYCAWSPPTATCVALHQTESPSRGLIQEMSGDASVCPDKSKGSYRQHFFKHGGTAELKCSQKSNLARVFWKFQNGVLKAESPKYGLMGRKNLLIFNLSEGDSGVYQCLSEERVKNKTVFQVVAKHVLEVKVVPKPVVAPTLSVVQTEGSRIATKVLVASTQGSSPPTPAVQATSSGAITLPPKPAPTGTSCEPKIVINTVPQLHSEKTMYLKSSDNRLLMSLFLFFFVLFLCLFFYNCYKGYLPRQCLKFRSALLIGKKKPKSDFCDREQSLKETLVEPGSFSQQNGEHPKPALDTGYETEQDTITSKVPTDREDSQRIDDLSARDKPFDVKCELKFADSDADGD
Description: The purified hybridoma SEMA4D antibodies and fully human SEMA4D antibody were subjected to competitive flow cytometry (FACS) to analyze whether the epitopes bound by different antibodies competed with that bound by the reference antibody VX15.
(§1) The medium was aspirated, the cells were washed once with PBS buffer (purchased from Invitrogen), and then treated with cell dissociation fluid (TrypLE™ Express Enzyme, purchased from Life technology), and the cells were collected. After the cells counted, the cells were washed once with PBS phosphate buffer, and diluted to 3×10⁶ cells per milliliter, and added to the 96-well FACS reaction plate as 100 μL per well. 2% (w/w) fetal calf serum was added to PBS phosphate buffer as FACS buffer, with which the cells were washed once by centrifugation at 2000 rpm 4° C. 100 μL of the leading antibodies and IgG control diluted to a concentration of 6 μg/mL was added to each well and the plate was incubated for 1 hour on ice. […] Cells were washed 2 times by centrifugation with FACS buffer. The cells were suspended with 200 μL of FACS buffer, and FACS (FACS Verse, purchased from BD) was used to detect and analyze the results.

[2] = target: T2, mouse SEMA4D, full length, on CHO-K1 cells (CHO-K1 mSEMA4D) (mouse, UniProt O09126 24-861); test: FACS, CHO-K1 mSEMA4D cells; Ab 0.000853 nM
T2 construct: whole, on cells; also called murine SEMA4D recombinant cells
T2 sequence (looked up): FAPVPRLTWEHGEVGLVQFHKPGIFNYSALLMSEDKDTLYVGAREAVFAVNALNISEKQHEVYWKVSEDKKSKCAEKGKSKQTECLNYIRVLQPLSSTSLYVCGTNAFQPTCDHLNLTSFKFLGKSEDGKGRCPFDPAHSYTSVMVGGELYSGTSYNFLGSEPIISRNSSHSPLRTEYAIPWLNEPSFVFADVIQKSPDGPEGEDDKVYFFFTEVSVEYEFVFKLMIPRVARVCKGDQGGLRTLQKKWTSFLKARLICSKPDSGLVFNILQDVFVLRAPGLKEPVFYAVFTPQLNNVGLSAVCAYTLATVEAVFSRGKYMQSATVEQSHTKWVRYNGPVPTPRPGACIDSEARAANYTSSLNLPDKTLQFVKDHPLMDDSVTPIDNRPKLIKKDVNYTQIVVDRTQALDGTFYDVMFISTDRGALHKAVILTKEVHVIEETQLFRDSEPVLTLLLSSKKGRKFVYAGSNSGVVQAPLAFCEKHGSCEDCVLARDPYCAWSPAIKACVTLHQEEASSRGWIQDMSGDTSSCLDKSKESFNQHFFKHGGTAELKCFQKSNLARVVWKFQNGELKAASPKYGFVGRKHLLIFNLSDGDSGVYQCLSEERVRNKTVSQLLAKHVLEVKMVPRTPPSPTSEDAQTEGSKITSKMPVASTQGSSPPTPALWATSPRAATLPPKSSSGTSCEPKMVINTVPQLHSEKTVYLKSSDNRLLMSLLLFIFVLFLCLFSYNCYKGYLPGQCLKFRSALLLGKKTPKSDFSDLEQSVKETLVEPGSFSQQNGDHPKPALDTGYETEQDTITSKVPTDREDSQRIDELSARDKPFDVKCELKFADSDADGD
Procedure: (§2) After the cells were counted, they were diluted with PBS to 2×10⁶ cells per milliliter. After washing, 100 μL of diluted and purified leading antibodies was added to each well and the plate was incubated for 1 hour on ice. […] Cells were washed 2 times by centrifugation with FACS buffer. The cells were suspended with 200 μL of FACS buffer, FACS (FACS Verse, purchased from BD) was used to detect and analyze the results.

[3] = target: T3, monkey SEMA4D, full length, on CHO-K1 cells (CHO-K1 cSEMA4D) (monkey); test: FACS, CHO-K1 cSEMA4D cells; Ab 0.000853 nM
T3 construct: whole, on cells; also called monkey SEMA4D recombinant cells
Procedure: as §2

[4] = target: T1, human SEMA4D, full length, on CHO-K1 …; test: FACS, CHO-K1 hSEMA4D cells; Ab 2.67 nM
Procedure: as §1, with “of diluted and purified” for “of the”, “antibodies” for “antibodies and IgG control diluted to a concentration of 6 μg/mL”

Binder | inhibition rate (%) [1] [%] | MFI [2] | MFI [3] | MFI [4]
32C8F10 (antibody, V domains shown, Mouse monoclonal antibody purified from hybridoma supernatant on protein A) VH: EVQLQQSGAELVRPGASVKLSCTASGFNIKDEYIHWVKQRPEQGLEWIGWIDPANGHTEYASRFQAKATITADTSSNTAYLQLSSLTSEDTAVYYCTTGDYDGFAYWGQGTLVTVST VL: QIVLTQSPAIMSASPGEKVTISCSARSSVSYMYWYQQKPGSSPKPWIYRTSNLASGVPARFSGSGSGTSYSLTISSMEAEDAATYYCQHYHTYPYTFGGGTKLEIK | 42 | 30.4 | 49.7 | 6170
31C11G2 (antibody, V domains shown, Mouse monoclonal antibody purified from hybridoma supernatant on protein A) VH: EVQLQQSGAELVRPGASVKLSCTASGFNIKDEYIHWVKQRPEQGLEWIGWIDPANGHTEYASRFQAKATITADTSSNTAYLQLSSLTSEDTAVYYCTTGDYDGFVYWGQGTLVTVST VL: QIVLTQSPAIMSASPGEKVTIFCSARSSVSYMYWYQQKPGSSPKPWIYRTSNLASGVPARFSGSGSGTSYSLTISSMEAEDAATYYCQHYHTYPYTFGGGTKLEIK | 44 | 30.9 | 81.4 | 5970
31G10C5 (antibody, V domains shown, Mouse monoclonal antibody purified from hybridoma supernatant on protein A) VH: EVQLQQSGAELVRPGASVKLSCTASGFNIKDDYIHWVKQRPEQGLEWIGWIDPANGHIEYASNFQAKATITADTSSNTAYLQLSSLTSEDTAVYYCTTGDYDGFTYWGQGTLVTVST VL: QIVLTQSPAIMSASPGEKVTISCSARSSVSYMYWYQQKPGSSPKPWIYRTSNLASGVPARFSGSGSGTSYSLTISSMEAEDAATYYCQHYHTYPYTFGGGTKLEIK | 42 | 30.1 | 61.5 | 5860
37C4F7 (antibody, V domains shown, Mouse monoclonal antibody purified from hybridoma supernatant on protein A) VH: EFQLQQSGPEVVKPGASVKISCKASGYSFTDYNMNWMKQSKGKSLEWIGVINPNYGTTTYNQNFKGKATLTVDQSSSTAYMQLNSLTSEDSAVYYCARDMYYVYAYYTMDYWGQGTSVTVSS VL: DVVMTQTPLSLPVSLGDQASISCRSSQSLVHSNGHTYLHWYLQRPGQSPTLLIYKVSNRFSGVPDRFSGSGSGTDFTLKISRVEAEDLGVYFCSQGTHVPWTFGGGTKLEIK | 20 | 30.2 | 29 | 2340
38H2E3 (antibody, V domains shown, Mouse monoclonal antibody purified from hybridoma supernatant on protein A) VH: EFQLQQSGPEVVKPGASVKISCKASGYSFTDYNMNWMKQSKGKSLEWIGVISPDYGTTTYNQNFKDKATLTVDQSSSTAYMQLNSLTSEDSAVYYCAKDMYYVYAYYTMDYWGHGTSVTVSS VL: DVVMTQTPLSLPVSLGDQASISCRSSQSLVHSNGHTYLHWYLQRPGQSPTLLIYKVSNRFSGVPDRVSGSGSGTDFTLKISRVEAEDLGVYFCSQGTHVPRTFGGGTKLEIK | 21 | 30.1 | 26.1 | 2370
37F11F9 (antibody, V domains shown, Mouse monoclonal antibody purified from hybridoma supernatant on protein A) VH: EVQLQQSGPVLVKPGASVKMSCKASGYTFTDYYMNWVKQSHGKSLEWIGLINPYSGGSTFNQKFKAKATLTVDKSSSSAYMDLNSLTSEDSAVYYCARVGDGYYGVTHGMDYWGQGTSVTVSS VL: DIVMTPSQKFMSTTVGDRVSITCKASQNVGTAVAWYQQKPGQSPTILIYSASNRYTGVPDRFTGSGSGTDFTLTISNMKSEDLADYFCQQYYIYPFTFAAGTKLELK | 25 | 29.7 | 29.5 | 2880
42B7G2 (antibody, V domains shown, Mouse monoclonal antibody purified from hybridoma supernatant on protein A) VH: QVQLQQSGAELARPGASVKLSCKASGYTFTDYGISWVKQRTGQGLEWIGEIYLRNDNSYYNEKFKGKATLTADKSSNTAYMELRSLTSEDSAVYFCARWGDHGNNYEDAMDYWGQGTSVTVSS VL: DIVLTQSPASLAMSLGKRATISCRASESVSIIGSNLIHWYQQKPGQPPKLLIYHASNLETGVPARFSGSGSRTDFTLTIDPVEEDDVAIYYCLQSRKVPYTFGGGTKLEIK | 15 | 31.1 | 54.5 | 3790
